According to the nanobody polyreactivity screen of Harvey et al. (2022):

Assay: yeast display, Sf9 membrane polyspecificity reagent, FACS + sequencing; frameworks hold sequencing errors
In short: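 Synthetic nanobody libraries on Saccharomyces cerevisiae BJ5465 were galactose-induced for 36–48 hours, stained 1 hour at 4 °C with 10% biotinylated, detergent-solubilized Sf9 membrane reagent and enriched on streptavidin microbeads. FACS then separated cells into low and high (top ~1%) gates by anti-HA (expression) and streptavidin (reagent binding) fluorescence. Genes were colony-PCR amplified, MiSeq 2 × 250 sequenced and CDR-length filtered. A clone's polyreactivity label is that of its gate of origin.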

Row | Sequence | polyreactivity (PSR sort gate)
1 | QVHLVESGGGLVQAGGSLRLSCAATGSTFPYNTMGWYRQAPGKERELVAAISSSGGSTYYADSVKGRFTISRDNAKNSVYLQRKSLKPEENAVYYCKAQIVASYQARRYYYWGQGTQVTVSS | low polyreactivity
2 | QVQLVESGGGLVQAGGSLRLSCAASGRTFVKNNMGWYRQSPGKERELVAAISSSGGSTYYADSVKGRFTISRDNAKNSVYLHMNSLNPEDTAVYFCAVSYPYKHAGGWYAYNYWGQGTQVTVSS | high polyreactivity
3 | QVQLVESGGGLVQAGGSLRLSCAASGRIFTRYAMGWYRQATGKERELVAAISSGGGNTYYADSVKGRFTISRDNAKNTVYLQMNSLKPEDTAVYYCAALRSWRKTGGAQRYWYDYWGQGTQVTVSS | high polyreactivity
4 | QVQLVESGGGLDQAGGRLRLSCAASGRTFIVFAMGWYRQAPGKESELVAGITRGSTNYADSVKGRFTISRDNAKNTVYLQMNSLKPEDTEVYYCATEVYIWPWGTVYAFEYDYWGQGTQVTVSS | high polyreactivity
5 | QVQLVESGGGLVQAGGSLRLSCAASVFTFAPNAMGWYRQAPGKERELVAVIDSGGSTNYADSVKGRFTISRDNAKNTVYLQMNSLKPEDTAVYYCATDVPLDYYWLWDDYWGQGTQVTVSS | low polyreactivity
6 | QVQLVESGGGLVQAGGSLRLSCAATGTFIIYAMGRYRQAPGKERELVATISTGGSTNYADSVKGRFTISRDNAKNTVYLQMNSLKPEDTAVYYCAAEWLYPHDGGYPRPMDYCGQGTQVTVSS | low polyreactivity
7 | QVQLVESGGGLVQAGGSLRLSCAASGRTLGGYTMGWYRQAPGKERELVAAITTGGSTNYADSVKGRFTISRDNAKNTVYLQMNSLKPEDTAVYYCATELVFDKRYWYDYWGQGTQVTVSS | low polyreactivity
8 | QVQLVESGGGLVQAGGSLRLSCAASVFIFPHYTMGWYRQAPGKERELVAAISSSGGSTYYADSVKGRFTISRYNAKNTVYLQMNSLKPEDSADYYCPGPLPYYGQYDYWGQGTQVTVSS | low polyreactivity
9 | QVQLVESGGGLVQARGSLRLSCAASGFTFPSYAMGWYRQAPGKERELVARITWIGGRTYYADSVKGRFTISRDNAKNTVYLQMNSLKPEDSAVYYCAARIGGGPVKYDYWGQGTQVTVSS | high polyreactivity
10 | QVQLVESGGGLVQAGGSLRLICAASGSTFLVNTMGWYRQAPGKERELVAAISYSGGRTYYADSVKGRFTISRDNAKNTVYFQMNSLKPEDTAVYYCAARYYRTRREGVDYWGQGTQVTVSS | high polyreactivity
11 | QVQLVESGGGLVQAGGSLRLSCAASGFIFSRYVMGWYRQAPGKERELVAAISRGGSTYYADSVKGRFTISRDNAKNTVYLQMNSLKPEDTAVYYCAVRSTRFLIYYPPYDYWGQGTQVTVSS | high polyreactivity
12 | QVQLVESGGGLLQAGGSLRLTCAASGSIFRYYSMGWYRQAPGKERELVASINSCGSTYYADSVKGRFTISRDNAKNTVYLQMKSLKPEDSAVYYCAAETSFYYRGYWKSYDYWGQGTQVTVSA | high polyreactivity
13 | QVQLVESGGGLVQAGGSLRLSCAASGRIFWYYAMGWYRQAPGKERELVAAITRSGASTYYADSVKGRFTISRDNAKNTVYLQMNSLKPEDTAVYYCAARGRWNVPARRDYWGQGTQVTVSS | high polyreactivity
14 | QVQLVESGGGLVQAGGSLRLSCAASGFTFDANAMGWYRQAPGKERELVAAINWSGGSTYYADSVKGRFTISRDNAKYTVYLQMNSLKPEDTAVYYCAAELWGLFDYWGQGTQVTVSS | low polyreactivity
15 | QVQLVESGGGLVQEGGSLRLSCAASGSIFDVYAMGWSRQGPGKERELVAAISSSGSTYYADSVKGRFTISRDNAKNTVYLQMNSLKPEDTAVYYCAAVQADDDDYYYWGQGTQVTVSS | low polyreactivity
16 | QVQLVESGGGLVQAGGSLRLSCAASGFIFSKYAMGWYRQAPGKERELVAAITFSGGSTYYADSVKGRFTISRDNAKNTVYLQMNSLKPEDTAVYYCNAEGSYPDVSPVLGYDYWGQGTQVTVSS | low polyreactivity
17 | QVQLVESGGGLVQAGGSLRLSCAASGRILWSYAMGWYRQAPGKEREFVATINRSGGNTHYADSVKGRFTISRDNAKNTVYLQMNSLKPEDTAVYYCAARNLVPYGYQGLRYYYWGQGTQVTVSS | high polyreactivity
18 | QVQLVESGGGLVQAGGSLRLSSAASGRTLASYAIGWYRQAPGQESELVAAISKRGGGTYYADSVKGRFTISRDNAKNTVYLQMNSLKPEDTAVYYCAKGTGYKPVVTTHPMDYWGQGTQVTVSS | high polyreactivity
19 | QVQLVESGGGLVQAGGSLSLSCAASGSIFGFNAMGWYRQAPGKERELVAAINNGGSTNYADSVKGRFTISRDNAKNTVYLQMNSLNPEDTSVYYCAAVGGWRWSNQDYRYPYYYWGQGTQVTVSS | high polyreactivity
20 | QVQLLESGGGLVQAGGSLRLRCASSGRIFVYYAMGWYRQAPGKERELVAANRWTGGSTYYADSVKGRFTISRDNAKNTVYLQMNSLKPEDTAVYYCATVNRYGHFNYWGQGTQVTVSS | high polyreactivity
21 | QVQLVESGGGLVQAGGSLRLSCAASGITFYVYAMGWYRPAPGKVRELVAAINYDSGSTYYADSVKGRFTISRDNAKNTVYLQMNSLKPEDTAVYYCATDGVNPFYAYDYWGQGTQVTVSS | low polyreactivity
22 | QVQLVESGGGLVQAGGSLRLSCAASGRIFNGNAMGWYRQAPGKESELVAAISTSGGRTYYADSVKGRFTISRDNAKNTVYLQMNSLKPEDTAVYYCAARYFRRDYIDYDLWGQGTQVTVSS | low polyreactivity

Row | Sequence | polyreactivity (PSR sort gate)
23 | QVQLVESGGGLVQAGGSLRLSCAASAYAMGWYRQAPGKERELVAAITVSGGSTHYADSVKGRFTISRDNAKNTVYLQMNSLKPEDTAVYYCNARYDVWYYYWGQGTQVTVSS | low polyreactivity
24 | QVQLVETGGGLVQAGGSLRLSCAASGSTFYNYAMGWYRQAPGKEREFVAAISWGGGSTRYADSVKGRFTISRDYAKNTVYLQMNSLKPEDTAVYYCAARYPHYDYYYWGQGTQVTVSS | high polyreactivity
25 | QVQLVESGGGLVQAGGSLRLSCAASGRIFRDYTMGWYRTAPGKERELVAAITSGGSTYYADSVKGRFTISRDTAKNTVYLQMNSLKPEDTAVYYCNADGYVPGVDYWGLGTQVTVSS | low polyreactivity
26 | QDQLVESGGGLVQAGGSLRLSCAASGLTIYHYAMGWYRQAPGKERELVADISSGGSTSYADSVKGRFTISRDNAKNTVYLQMNSLKPEDTAVYYCAADYTWERYHRQIFRLDYWGQGTQVTVSS | low polyreactivity
27 | QVQLVESGGGLVQAGGSLRLSCAASGSTFNRNAMGWYRQAPGKERELVAAISWRGDSTSYADSVKGRFTISRDNAKNTVYLQMNSLKPEDTAVYYCATAHDYAFYRYWYVPSEYNYWGQGSQVTVSS | low polyreactivity
28 | QVQLVESGGGLVQAGGSLRLSCAASGSIFYVYAMGWYRQAPGKERELVAAISRGGGSTSYADSVKGRFTISRDNAKNTVYLQMNSLKPEDTAVYYCNAYTYYHANHEQGFGYWGQGTQVTVSS | low polyreactivity
29 | QVQLVESGAGLVQAGASLRLICAASGRTFPDYAMGWYRQAPGTERELVAAIYSGGGTNYADSVKGRFTISRDNAKNTVYLQMNSLKQEDTAVYYCAATGVPGWVGFDYWGQGTQVTVSS | low polyreactivity
30 | QVQLVESGGGLVQAGGSLRLSCAASGFTFYRYVMGWYRKAPGKETELDAAISRRGGSTYYADSVKGRFTISRDNAKNTVYLQMNSLKPEDTAVYYCAADVISRYYVQYIGYYELHYDYWGQGTQVTVSS | high polyreactivity
31 | QVQLVESGGGLVQAGGSLRLSCAASGFIFVVYTMGGYRQEPGKVRELVAAITSGGSTYYADSVKGRFTISRDNAKNTVYLQMNSLKPEDTAVYYCNALASRYQAYYYWGQGTQVTVSS | low polyreactivity
32 | QVQLVESGVGLVQAGGSLSLSCAASGCTLRYYVMGWYRQAPGKERELVASISWSGDSTYYADSVKGRFTISRDNAKNTVYLQMNSLKPEDTAVYYCAARRWYVHYFAYGYWGQGTQVTVSS | low polyreactivity
33 | QVQLVESGGGLVQAGGSLRLSCAATGSIFGIYTMGWDRQAPGKERELVAAIRRSGSTNYADSVKGRFTISRDNEKNTVYLQMNSLKPEDSAVYYCAADALSDEYDYWGQGTQVTVSS | low polyreactivity
34 | QVQLVESGGGLVQAGGSLRLSCAASGRTLTGNAMGWYRQAPGKERELVAVISYSGTNTRYADSVKGRFTISRDNAKNTVYLQMNSLKPEDTAVYYCAARRPAPNYSSRYDYWGQGTQVTVSS | high polyreactivity
35 | QVQLVESGGGLVQAGGSLRLTCAASGRTFYVYAMGWYRQAPGKERELVAAITRSGDSTYADSVKGRFTISRDNAKNTVYLQMNSLKPEDTAVYYCSKRYTHYSFRRFDYWGQGTQVTVSS | low polyreactivity
36 | QVQLVESGGRLVQPGGSLRLSCAASGFIFFYYAMGWYSQAPGKESELVAAISSGGSTNYADSVKGRFTISRDNAKNTVYLQMNSLKPEDTAVYYCAKRPTGGYKYYYTTSKYDYWGQGTQVTVSS | low polyreactivity
37 | QVQLVESGVGLVQAGGSLRLSCSASGSIFDYYAMGWYRQAHGKERELVAAISWRGGRTYYADSVKGRFTISRDNAKNTVYLQMNSLNPVDTAVYYCNTQEPYYESDYWGLGTQVTVSS | high polyreactivity
38 | QVQLVESGGGLVQAGGSLRLSCAASGSTFVPYTMGWYRQAPGKERELVAAISGSGGTDYADSVKGRFTISRDNAKNTVYLQMNSLKPEDTAVYYCATDGLDFWFIYDYWGQGTHVTVSS | low polyreactivity
39 | QDQLVESGGGLVQAGGSLSLSCAASGSIIPNYAMGWYRQAPGKERELVAAISSSGGRTYYADSVKGRFTISRDNAKNTVYLQMNCLKPEDTAVYYCAADTYTSAQHEKYDYWGQGTQVTVSS | low polyreactivity
40 | QVQLVESGGGLVQAGGSLRLSCAASGLTFFKYTMGWYRQPPGKERELVSAINGGGSTNYADSVKGRFSISRDNAKNTVYLQMNSLKPEDTAVYYCAAGLQYGYDYWGQGTQVTVSS | low polyreactivity
41 | QVQLVESGGGLVQAGGSVRLSCAASGRIFQPYAMGWYRQAPGKEREWVAAITRRAGSTYYADSVKGRFTISRDNALNTVYLQLNSLKPEDTAVSYCAARGLYWAYEMEYWGQGTQVTVSS | low polyreactivity
42 | QVQLVESGGGLVQAGGTLRLSCAASGSTFDVYAMGWYRQSPVKESELVADINYGDASTYYADSVKGRFTISRDNAKNTVYLQMISLNPEDTSVYYCAAFVYVLNYLSDGGSVYREHDYWGQGTKVTVSS | low polyreactivity
43 | QVQLVESGGGLVQAGGSLRLSCAASGSTFSSYAMGWYRQAPGKERELVAAINWSGTRTYYADSVKGRFTISRDNAKNTVYLQMNSLKPEDTAVYYCAAVLSLSSRQGVITKGDYWGQGTQVTVSS | low polyreactivity
